The text below walks through data of patent US20250282887A1 (Amgen, published 2025).

Substitutions are numbered along the chain they refer to.

In experiment [1] the target is T1, Human MAGEB2 (Melanoma-associated antigen B2) (human, UniProt O15479 1-319).
T1 construct: Intracellular antigen detected by IHC in FFPE material: CHO cells transfected with human MAGEB2 (mCherry vector with Myc/DDK tags, or ORF without tags)
T1 sequence: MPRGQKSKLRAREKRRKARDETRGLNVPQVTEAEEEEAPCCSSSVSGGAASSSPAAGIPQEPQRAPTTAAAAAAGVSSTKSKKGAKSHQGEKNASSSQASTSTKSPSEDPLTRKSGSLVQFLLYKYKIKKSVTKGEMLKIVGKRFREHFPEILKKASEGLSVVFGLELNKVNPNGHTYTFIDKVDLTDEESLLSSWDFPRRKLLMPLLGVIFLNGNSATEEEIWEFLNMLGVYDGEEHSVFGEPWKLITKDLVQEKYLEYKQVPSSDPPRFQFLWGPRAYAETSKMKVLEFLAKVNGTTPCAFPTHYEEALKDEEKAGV
The experiment is described as follows: IHC on FFPE KMM-1 cells (endogenous MAGEB2). As for the experimental part:
(§1) FFPE samples were sectioned at 4 μm and mounted on positive charged glass slides. After mounting, paraffin sections were air-dried at room temperature. FFPE TMA samples were received as freshly sectioned and mounted on glass slides. The fully automated IHC assay was performed on a Discovery Ultra Stainer (Ventana Medical Systems, Tucson, AZ) using Ventana Anti-Rabbit HQ (cat #760-4815), Ventana Anti-HQ HRP (cat #760-4820), and Ventana Antibody Diluent with Casein (cat #760-219) (Ventana Medical Systems, Tucson, AZ). The slides were baked on the Discovery Ultra Stainer at 60° C. for 8 minutes, de-paraffinized with Ventana Discovery wash (cat #950-510) for 3 cycles (8 minutes each) at 69° C., and underwent cell conditioning (target retrieval) at 95° C. for 16 minutes (for cell arrays) or 32 minutes (tissues or TMAs) in CC1 buffer (cat #950-500). Following this, slides were incubated with Background Sniper (cat #BS966M, Biocare Medical, Pacheco, CA) in a Ventana Option Prep kit (cat #771-751) for 28 minutes, incubated with CM inhibitor (a part of the Ventana DAB kit cat #760-159) for 12 minutes, and incubated for 1 h at RT with MAGE-B2 antibody diluted with Ventana diluent with Casein in a Ventana Prep kit (cat #770-001) (working concentration at 0.1 μg/ml for cell pellet, or 1-5 ug/ml for tissues) or with a matched concentration of isotype control Rabbit IgG1 antibody. Following this, slides were incubated with the Ventana Anti-Rabbit HQ (cat #760-4815) for 28 minutes at RT, Ventana Anti-HQ HRP (cat #760-4820) for 28 minutes at RT, and signals detected with Ventana DAB chromogen kit (cat #760-159) for 5 minutes at RT. Slides were counterstained with Ventana Hematoxylin II (cat #5266726001) for 8 minutes and Ventana Bluing reagent (cat #526676900) for 4 minutes. Slides were coverslipped and digitized using an Aperio AT2 scanner (Leica Biosystems Inc, Buffalo Grove, IL).

For another experiment, the target named is T2, human MAGEB6 (human, UniProt Q8N7X4 1-407).
T2 construct: whole, on cells; FFPE cell pellets
T2 sequence (looked up): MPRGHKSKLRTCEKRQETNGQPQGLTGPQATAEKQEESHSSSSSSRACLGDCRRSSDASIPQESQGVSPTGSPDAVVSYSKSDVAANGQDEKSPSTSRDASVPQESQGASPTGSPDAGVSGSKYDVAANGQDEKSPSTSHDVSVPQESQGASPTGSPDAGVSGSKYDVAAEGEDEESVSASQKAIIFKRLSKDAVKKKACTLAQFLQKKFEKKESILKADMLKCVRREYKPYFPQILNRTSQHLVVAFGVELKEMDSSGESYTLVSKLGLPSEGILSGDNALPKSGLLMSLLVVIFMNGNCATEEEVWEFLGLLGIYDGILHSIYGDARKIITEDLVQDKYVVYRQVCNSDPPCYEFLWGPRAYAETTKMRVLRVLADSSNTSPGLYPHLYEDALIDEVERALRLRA
Nature of the experiment: IHC, FFPE CHO cells transfected with human MAGEB6. As for the experimental part:
as §1

The target in another experiment is T3, human MAGEA11 (human, UniProt P43364 1-429).
T3 construct: whole, on cells; Transfected into CHO cells with Myc/DDK tags
T3 sequence (looked up): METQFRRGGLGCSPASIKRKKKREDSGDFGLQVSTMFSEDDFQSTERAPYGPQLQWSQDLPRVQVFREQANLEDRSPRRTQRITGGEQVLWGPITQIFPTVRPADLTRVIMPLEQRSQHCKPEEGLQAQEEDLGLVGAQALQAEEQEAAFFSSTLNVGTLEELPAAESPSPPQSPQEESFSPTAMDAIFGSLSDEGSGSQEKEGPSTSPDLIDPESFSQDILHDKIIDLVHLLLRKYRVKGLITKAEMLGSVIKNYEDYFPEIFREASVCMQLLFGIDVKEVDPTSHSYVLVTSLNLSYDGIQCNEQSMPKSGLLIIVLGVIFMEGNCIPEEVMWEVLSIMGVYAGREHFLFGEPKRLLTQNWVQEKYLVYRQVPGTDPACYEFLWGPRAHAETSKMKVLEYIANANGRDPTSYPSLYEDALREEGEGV
Nature of the experiment: IHC, FFPE CHO cells transfected with human MAGEA11. As for the experimental part:
as §1

Experiment [2] addresses T1, Human MAGEB2 (Melanoma-associated …). The experiment is described as follows: IHC on FFPE UACC-257 cells (endogenous MAGEB2). As for the experimental part: as §1
Another experiment deals with T4, human MAGEA9 (human, UniProt P43362 1-315).
T4 construct: whole, on cells; FFPE cell pellets
T4 sequence (looked up): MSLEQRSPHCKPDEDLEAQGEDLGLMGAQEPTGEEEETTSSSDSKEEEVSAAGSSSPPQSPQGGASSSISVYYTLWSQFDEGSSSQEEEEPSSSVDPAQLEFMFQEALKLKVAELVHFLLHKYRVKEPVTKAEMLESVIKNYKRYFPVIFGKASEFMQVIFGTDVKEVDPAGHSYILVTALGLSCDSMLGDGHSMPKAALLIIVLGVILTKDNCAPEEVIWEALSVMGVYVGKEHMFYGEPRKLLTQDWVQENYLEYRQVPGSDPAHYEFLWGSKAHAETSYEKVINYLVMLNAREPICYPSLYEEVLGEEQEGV
The experiment is described as follows: IHC, FFPE CHO cells transfected with human MAGEA9. As for the experimental part: as §1

B1: 1I14 (antibody, V domains shown)
VH: QSVEESGGRLVTPGTPLTLTCTISGFSLSSYAMSWVRQAPGKGLEWIGSIGGGGSAVYASWAKGRFTISKTSTTVDLRITSPTTEDTAMYFCGRGFYSIDLWGPGTLVTVSS
VL: DVVMTQTPASVEATVGGTVTIKCQSSQSVYDNNALAWYQQNAGQRPRLLIYGASTLASGVPSRFSASGSGTEFTLTISDLECADAATYYCQCTYYVSSYQNDFGGGTEVVVKG
notes: also called MAGE-B2 (1i14)
Consider B1, for which the “IHC % Frequency” value in experiment [1] stood at 70%; in experiment [2], 0%. Further, the “IHC Intensity” value in experiment [1] worked out at 1. Further, the binding result in the experiment with human MAGEB6, in the experiment with human MAGEA11 and with human MAGEA9 was “no binding (tested: 0.1 µg/ml)” each time.

B2: 1C3 (antibody, V domains shown)
VH: QSLEESGGGLVQPEGSLTLTCTAFGVTLTNYYICWVRQAPGKGLEWVGCIDNANGRTYYASWAKGRFTISKTSSTTGTLQMTSLTAADTATYFCARSLATPLWGPGTLVTVSS
VL: DIVMTQTPSSVEAAVGGTVTIKCQASQNISSYLAWYQQKPGQPPKLLIYRASTLASGVPSRFKGSGSGTQFTLTISDLECADAATYYCQSYDDSRSSNFFYAFGGGTEVVVKG
notes: also called MAGE-B2 (IC3); anti-MAGEB2 antibody 1C3
As for B2, the “IHC % Frequency” value in experiment [1] came to 70%; in experiment [2], 0%. The “IHC Intensity” value in experiment [1] was 1. Also, the binding result with human MAGEB6, with human MAGEA11 and with human MAGEA9 was “no binding (tested: 0.1 µg/ml)” in each case.

B3: 4G17 (antibody, IgG1, V domains shown)
VH: B2 VH with F24S, T29S, V47I, A53V
VL: DIVMTQTPASVEAAVGGTVTIKCQASQNIDSYLAWYQQKPGQPPKLLIYRASTLASGVPSRFKGSGSGTEFTLTISDLECADAATYYCQSYDDSRSSSFFYGFGGGTEVVVK
notes: Rabbit monoclonal IgG1; Tested as supernatant and as small batch purified antibody; also called MAGE-B2 (4G17); anti-MAGEB2 antibody 4G17
As to B3, the results for the “IHC % Frequency” value in experiment [1] and in experiment [2] were 70% and 0%, respectively. Also, the “IHC Intensity” value is 2 in experiment [1] and 0 in experiment [2]. The binding result with human MAGEB6, with human MAGEA11 and in the experiment with human MAGEA9 was “no binding (tested: 0.1 µg/ml)” throughout.

B4: 1J15 (antibody, IgG1, V domains shown)
VH: B2 VH with V26F, T29N, V47I, G48A, G77V, A99S
VL: B3 VL with N28S, D30S, A34S, K63R, E70Q, R95S, S96D, S97N, S98N, K112R
notes: Rabbit monoclonal IgG1; Tested as supernatant and as small batch purified antibody; also called MAGE-B2 (IJ15); anti-MAGEB2 antibody 1J15
B4: the “IHC % Frequency” value in experiment [1] worked out at 70%; in experiment [2], 0%. Further, the binding result in the experiment with human MAGEB6, with human MAGEA11 and in the experiment with human MAGEA9 was “no binding (tested: 0.1 µg/ml)” in each case. Besides, the “IHC Intensity” value in experiment [2] was 0.
